B1: 12G1 (antibody, V domains shown)
VH: QIQLVQSGPELRKPGETVRISCKASGYTFTTAGMQWVQKMPGKGLKWIGWINTHSGVPKYAEDFKGRFAFSLETSASTAYLQISNLKNEDTATYFCARTSWAPYWGQGTLVTVSA
VL: not shown
B2: 2E9 (antibody, V domains shown)
VH: EVKLLESGGGLVQPGGSLKLSCAASGFDFSRYWMNWVRQAPGKGLEWIGEINPHSSTINYAPSLKDKFIISRDNAKNTLYLQMSKVRSEDTALYYCGRGDYVDYWGLGTTLTVSS
VL: DIVMSQSPSSLAVSVGEKVTMSCKSSQSLLYSRNQKNYLAWYQQKPGQSPKLLIYWASTRESGVPDRFTGSGSGTDFTLTISSVKADDLAVYYCQQYYSYPRTFGGGTKLEIK
B3: 12B12 (antibody, V domains shown)
VH: EVQLQQSGAELVKPGASVKLSCTASGFNIKDTYIHWVKQRPEQGLEWIGRIDPANGNTNYDPKFQDKATITADTSSNTAYLQFSSLTSEDTAVYYCSNWDYFDYWGQGTTLTVSS
VL: not shown

Assays:
[1] = biological target: alpha-synuclein oligomer (human, UniProt P37840); test: SPR
[2] = biological target: alpha-synuclein sonicated fibrils (human, UniProt P37840); test: SPR
[3] = biological target: alpha-synuclein monomer (human, UniProt P37840); test: SPR
[4] = biological target: alpha-synuclein physiologic tetramer (human, UniProt P37840); test: SPR
[5] = biological target: gamma-synuclein monomer (human, UniProt O76070); test: ELISA
[6] = biological target: beta-synuclein monomer (human, UniProt Q16143); test: ELISA
beta-synuclein monomer, sequence (Q16143 whole entry): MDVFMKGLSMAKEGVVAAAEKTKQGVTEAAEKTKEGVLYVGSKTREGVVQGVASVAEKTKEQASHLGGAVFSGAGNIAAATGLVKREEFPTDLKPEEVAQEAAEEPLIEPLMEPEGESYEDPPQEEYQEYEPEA

gamma-synuclein monomer, sequence (O76070 whole entry): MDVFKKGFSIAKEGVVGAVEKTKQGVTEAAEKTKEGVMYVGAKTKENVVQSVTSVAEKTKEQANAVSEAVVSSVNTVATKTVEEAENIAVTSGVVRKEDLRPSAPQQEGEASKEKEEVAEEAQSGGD

| Binder | Kd [1] | Kd [2] | binding result [3] | binding result [4] | binding result [5] | binding result [6] |
| --- | --- | --- | --- | --- | --- | --- |
| B1 | 1610 nM | 20 nM | no binding | no binding | – | – |
| B2 | 431 nM | 9 nM | no binding | no binding | no binding | no binding |
| B3 | 985 nM | 8 nM | no binding | no binding | – | – |

— patent US20250346655 (published 2025)
